Ends that are not written are not given here. * marks the point of attachment. Biotin = O=C1N[C@H]2[C@H](CS[C@H]2CCCCC(=O)*)N1

One experiment has as its target PKCθ C2 domain, 1-144 (UniProt Q04759). Kind of experiment: ELISA, immobilized biotin-peptide, soluble GST-C2. Particulars: reference: unphosphorylated Y126 peptide; sites Y126. (In general: In an ELISA, binding on a coated surface is turned into a signal by an enzyme label.)
For experiment [1], the target named is T1, GST-PKCθ-C2^WT (GST fusion of the C2 domain of human PKCθ, aa 1–144) (human, UniProt Q04759 1-144).
T1 sequence (looked up): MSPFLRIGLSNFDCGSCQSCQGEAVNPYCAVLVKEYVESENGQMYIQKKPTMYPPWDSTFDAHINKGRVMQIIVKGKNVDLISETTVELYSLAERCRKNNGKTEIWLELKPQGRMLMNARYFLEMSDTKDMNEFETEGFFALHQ
Kind of experiment: ELISA.

“Zap70 (from UniProt P43403) pY126 peptide”: the “binding against the reference” value in the experiment with PKCθ C2 domain, 1-144 was “stronger”.

B1: Zap70 peptide Y126 (non-phosphorylated), N-terminally biotinylated (peptide)
peptide: Biotin-AMVRDYVRQTWK
With B1, the binding result in experiment [1] was “binds”.

Source of the values: publication PMC7195849 (Science signaling, 2019).
